Experimental data as given in patent US20250027060A1 (VIB VZW, published 2025).
One block for each binder: values may come before it.

Experiments:
[1] = molecular target: T1, LTKTG-EGFL (human LTK amino acids 63-420) (human, UniProt P29376 63-420); assay: BLI, biotinylated ALKAL1 R102E on streptavidin biosensors, LTKTG-EGFL in solution, dilution series 6.4 µM-400 nM
T1 construct: Fc-His6 tag removed by caspase 3; also called LTK (in BLI, SEC-MALLS and ITC)
T1 sequence: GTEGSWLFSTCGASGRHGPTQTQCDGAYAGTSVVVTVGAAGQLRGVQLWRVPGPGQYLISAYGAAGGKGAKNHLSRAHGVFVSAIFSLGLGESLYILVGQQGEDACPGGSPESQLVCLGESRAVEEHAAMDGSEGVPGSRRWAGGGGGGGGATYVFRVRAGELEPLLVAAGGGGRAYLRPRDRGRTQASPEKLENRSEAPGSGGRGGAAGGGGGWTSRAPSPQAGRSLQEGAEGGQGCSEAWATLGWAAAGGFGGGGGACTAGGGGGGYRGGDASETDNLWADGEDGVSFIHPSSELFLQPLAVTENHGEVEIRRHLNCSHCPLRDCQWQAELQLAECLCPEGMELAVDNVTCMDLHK
Description: (§1) FIGS. 10A and 10B Representative response curves as measure by biolayer-interferometry (BLI) for the interaction of WT ALKAL1 and ALKAL1 mutants (containing charge-reversal mutations of residues involved in site 1) (FIG. 10A) and WT ALKAL2 and ALKAL2 mutants (FIG. 10B) with ALK_TG-EGFL and LTK_TG-EGFL. For WT ALKALs LTK curves were fitted with a 2:1 binding model (red) while for ALK a 1:1 model was used. Start and end concentrations of the 3-fold dilution series used for the WT measurements is shown as an inset while for all mutants a […] dilution series from 6.4 μM-400 nM was used.
(§2) All measurements of binding kinetics and dissociation constants were performed using an Octet Red 96 (Forté Bio) in assay buffer (20 mM HEPES pH 7.4, 150 mM NaCl, 0.02% (w/v) BSA, 0.002% (v/v) Tween 20) at 298K. ALKALs were immobilized to a level of 0.5 nm on streptavidin-coated biosensors (Forté Bio). To verify that no a specific binding was present during the assay, non-functionalized biosensors were used as a control by measuring in parallel all ligand concentrations as well as running buffer. For all mutants a two-fold dilution series from 6.4 μM-400 nM was employed. Data analysis was performed using the Data Analysis software 9.0.0.14 (Forté Bio) and binding curves were exported to Prism8 (Graphpad Software) for plotting of curves.

[2] = molecular target: T2, ALKTG-EGFL (human ALK amino acids 648-1025) (human, UniProt Q9UM73 648-1025, N-linked glycans; EndoH-trimmed (deglycosylated) for crystals and SEC-MALLS); assay: ITC, 310 K, one-site model
T2 construct: The C-terminal Fc-His6 tag was removed by caspase 3; also called ALK (in BLI, SEC-MALLS and ITC)
T2 sequence (Q9UM73 648-1025): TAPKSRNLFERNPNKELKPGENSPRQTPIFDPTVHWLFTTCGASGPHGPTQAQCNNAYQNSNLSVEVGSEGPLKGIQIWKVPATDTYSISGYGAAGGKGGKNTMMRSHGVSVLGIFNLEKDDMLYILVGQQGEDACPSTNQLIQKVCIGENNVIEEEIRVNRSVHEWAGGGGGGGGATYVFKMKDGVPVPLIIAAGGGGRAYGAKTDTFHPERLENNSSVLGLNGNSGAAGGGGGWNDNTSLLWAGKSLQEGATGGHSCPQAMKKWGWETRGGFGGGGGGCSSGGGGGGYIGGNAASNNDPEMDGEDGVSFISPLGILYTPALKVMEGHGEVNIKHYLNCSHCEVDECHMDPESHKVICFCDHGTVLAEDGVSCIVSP
Procedure: (§3) FIG. 5A and FIG. 5B Isothermal titration calorimetry thermograms for the titration of ALK_TG-EGFL (10 μM) with ALKAL2 (100 μM) (FIG. 5A) and titration of ALKAL1 (25 μM) with ALK_TG-EGFL (210 μM) (FIG. 5B). […] The right panel represents the binding isotherm obtained from the integration of the raw data and fitted to a one-site model. Standard deviations were calculated based on 3 measurements.
(§4) Experiments were performed using a MicroCal PEAQ-ITC instrument at 310K. Proteins used in ITC experiments were expressed in HEK293S cells grown in suspension. As a final purification step all proteins were buffer exchanged to the same HBS buffer via size-exclusion chromatography. Titrations were preceded by an initial injection of 0.5 μL. The injection spacing was optimized per experiment to allow for the signal to get back to a stable baseline. Throughout the titration the sample was stirred at a speed of 750 r.p.m. Data were analyzed using the PEAQ-ITC analysis software (version 1.1.0.1262, Malvern) and fit using a “one set of sites” model.

[3] = molecular target: T1, LTKTG-EGFL (human LTK amino acids …); assay: BLI, biotinylated ALKAL2 on streptavidin biosensors, LTKTG-EGFL in solution 300 nM to 11 nM, 2:1 binding model, component 1
Description: as §1, §2

[4] = molecular target: T1, LTKTG-EGFL (human LTK amino acids …); assay: ITC at 310 K, LTKTG-EGFL (12 µM) titrated with ALKAL2 (56 µM), one-site model
Procedure: (§5) The right panel represents the binding isotherm obtained from the integration of the raw data and fitted to a one-site model. Standard deviations were calculated based on 3 measurements.
as §4

[5] = molecular target: T1, LTKTG-EGFL (human LTK amino acids …); assay: ITC, 310 K, one-site model, 2:1 stoichiometry
Procedure: as §5, §4

[6] = molecular target: T2, ALKTG-EGFL (human ALK amino acids …); assay: ITC at 310 K, ALKTG-EGFL (10 µM) titrated with ALKAL2 (100 µM), one-site model
Procedure: as §3, §4

[7] = molecular target: T3, LTKTG (human LTK amino acids 63-379) (human, UniProt P29376 63-379); assay: ITC at 310 K, LTKTG (10 µM) titrated with ALKAL2 (100 µM), one-site model
T3 construct: also called LTK TG supradomain
T3 sequence: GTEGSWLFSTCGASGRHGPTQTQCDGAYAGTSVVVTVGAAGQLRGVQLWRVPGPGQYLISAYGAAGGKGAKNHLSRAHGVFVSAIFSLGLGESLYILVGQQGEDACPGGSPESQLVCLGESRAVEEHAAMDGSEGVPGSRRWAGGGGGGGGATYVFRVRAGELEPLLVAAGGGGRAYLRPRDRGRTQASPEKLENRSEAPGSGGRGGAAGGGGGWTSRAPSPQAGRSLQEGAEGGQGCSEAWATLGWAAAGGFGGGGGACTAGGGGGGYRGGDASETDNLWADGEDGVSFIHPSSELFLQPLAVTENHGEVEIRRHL
Procedure: FIG. 12G, ITC experiments for the titration of LTKTG (10 μM) with ALKAL2 (100 μM) Standard deviations were calculated based on 2 measurements.
as §4

[8] = molecular target: T4, ALKTG (human ALK amino acids 648-985) (human, UniProt Q9UM73 648-985, N-linked glycans; EndoH-trimmed for crystals and SEC-MALLS); assay: ITC at 310 K, ALKAL2 (33 µM) titrated with ALKTG (330 µM), one-site model
T4 construct: Fc-His6 tag removed by caspase 3; also called ALK TG supradomain
T4 sequence (Q9UM73 648-985 limits assumed): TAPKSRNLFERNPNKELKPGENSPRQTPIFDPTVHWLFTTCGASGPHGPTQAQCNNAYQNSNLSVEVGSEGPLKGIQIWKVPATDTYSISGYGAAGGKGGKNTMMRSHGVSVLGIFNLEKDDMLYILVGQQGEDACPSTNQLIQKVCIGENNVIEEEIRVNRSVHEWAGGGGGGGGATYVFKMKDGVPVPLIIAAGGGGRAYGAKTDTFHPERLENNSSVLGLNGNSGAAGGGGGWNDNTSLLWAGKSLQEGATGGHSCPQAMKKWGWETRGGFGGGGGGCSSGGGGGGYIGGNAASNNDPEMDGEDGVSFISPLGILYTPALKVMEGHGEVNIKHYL
Procedure: FIG. 5D, Titration of ALKAL2 (33 μM) with ALKTG (330 μM) Standard deviations were calculated based on 3 measurements.
as §4

[9] = molecular target: T2, ALKTG-EGFL (human ALK amino acids …); assay: BLI, biotinylated ALKAL2 on streptavidin biosensors, ALKTG-EGFL in solution 800 nM to 12.5 nM, 1:1 model
Description: as §1, §2

[10] = molecular target: T4, ALKTG (human ALK amino acids 648-985); assay: ITC
Procedure: as §4

[11] = molecular target: T1, LTKTG-EGFL (human LTK amino acids …); assay: BLI, biotinylated ALKAL2 on streptavidin biosensors, LTKTG-EGFL in solution 300 nM to 11 nM, 2:1 binding model, component 2
Description: as §1, §2

[12] = molecular target: T5, ALKFL (full-length human ALK ectodomain, amino acids 19-1025) (human, UniProt Q9UM73 19-1025); assay: ITC at 310 K, ALKFL (8 µM) titrated with ALKAL2 (82 µM), one-site model
T5 construct: Fc-His6 tag removed by caspase 3; also called full-length ALK ectodomain
T5 sequence (Q9UM73 19-1025): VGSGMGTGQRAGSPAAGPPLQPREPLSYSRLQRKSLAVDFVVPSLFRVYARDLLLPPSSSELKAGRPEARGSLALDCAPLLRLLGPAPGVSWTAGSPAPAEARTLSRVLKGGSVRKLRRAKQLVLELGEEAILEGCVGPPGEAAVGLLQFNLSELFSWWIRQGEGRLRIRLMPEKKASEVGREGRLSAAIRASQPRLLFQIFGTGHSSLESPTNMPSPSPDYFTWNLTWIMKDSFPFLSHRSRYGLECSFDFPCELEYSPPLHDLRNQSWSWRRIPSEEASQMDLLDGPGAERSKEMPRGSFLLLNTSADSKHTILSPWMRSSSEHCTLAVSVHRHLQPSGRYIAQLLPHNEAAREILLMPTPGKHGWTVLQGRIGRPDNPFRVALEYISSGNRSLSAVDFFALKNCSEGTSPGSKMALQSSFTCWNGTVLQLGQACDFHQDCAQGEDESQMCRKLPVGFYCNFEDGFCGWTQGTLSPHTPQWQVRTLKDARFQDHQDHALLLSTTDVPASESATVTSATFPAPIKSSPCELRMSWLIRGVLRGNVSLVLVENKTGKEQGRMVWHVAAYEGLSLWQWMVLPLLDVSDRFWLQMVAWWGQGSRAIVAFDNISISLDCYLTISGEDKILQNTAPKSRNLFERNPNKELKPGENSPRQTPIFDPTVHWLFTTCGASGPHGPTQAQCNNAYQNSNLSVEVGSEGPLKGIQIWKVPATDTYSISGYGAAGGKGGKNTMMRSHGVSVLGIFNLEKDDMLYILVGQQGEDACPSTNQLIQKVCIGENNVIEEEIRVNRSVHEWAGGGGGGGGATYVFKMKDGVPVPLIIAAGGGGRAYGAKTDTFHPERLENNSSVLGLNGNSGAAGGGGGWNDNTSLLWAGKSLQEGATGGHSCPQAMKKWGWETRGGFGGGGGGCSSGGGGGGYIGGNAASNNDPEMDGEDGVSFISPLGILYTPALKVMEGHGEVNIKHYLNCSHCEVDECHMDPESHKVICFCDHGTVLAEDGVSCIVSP

[13] = molecular target: T1, LTKTG-EGFL (human LTK amino acids …); assay: BLI, biotinylated ALKAL2 H100A on streptavidin biosensors, LTKTG-EGFL in solution, dilution series 6.4 µM-400 nM, biphasic fit, component 1
Description: as §1, §2

[14] = molecular target: T1, LTKTG-EGFL (human LTK amino acids …); assay: BLI, biotinylated ALKAL2 H100A on streptavidin biosensors, LTKTG-EGFL in solution, dilution series 6.4 µM-400 nM, biphasic fit, component 2
Description: as §1, §2

[15] = molecular target: T1, LTKTG-EGFL (human LTK amino acids …); assay: BLI, biotinylated ALKAL2 H100A on streptavidin biosensors, LTKTG-EGFL in solution, dilution series 6.4 µM-400 nM, biphasic fit, component 2; the sheet prints x0^-1, taken as x10^-1
Description: as §1, §2

[16] = molecular target: T2, ALKTG-EGFL (human ALK amino acids …); assay: BLI, biotinylated ALKAL2 R123E on streptavidin biosensors, ALKTG-EGFL in solution, dilution series 6.4 µM-400 nM
Description: as §1, §2

[17] = molecular target: T1, LTKTG-EGFL (human LTK amino acids …); assay: BLI, biotinylated ALKAL2 R123E on streptavidin biosensors, LTKTG-EGFL in solution, dilution series 6.4 µM-400 nM
Description: as §1, §2

B1: ALKAL1^R102E (residues 57-129) (ligand, human, UniProt Q6UXT8 57-129, looked up)
chain: PSGSRSAEIFPRDSNLKDKFIKHFTGPVTFSPECSKHFHRLYYNTEECSTPAYYKRCARLLTRLAVSPLCSQT
notes: range 57-129; also called ALKAL1 site 1 mutant R102E
Kd [1]: 14000 nM

B2: ALKAL2 (truncated, residues 78-152) (ligand, human, UniProt Q6UX46 78-152, looked up)
chain: PSPEQRVEIVPRDLRMKDKFLKHLTGPLYFSPKCSKHFHRLYHNTRDCTIPAYYKRCARLLTRLAVSPVCMEDKQ
notes: range 78-152; Tag-free in ITC, SEC-MALLS, crystals and Ba/F3 assays; also called ALKAL2^WT; WT ALKAL2
Kd [2]: 40 nM | Kd [3]: 100 nM | koff [3]: 0.0037 s⁻¹ | kon [3]: 28000 M⁻¹ s⁻¹ | Kd [4]: 10 nM | ΔG [4]: -11.4 kcal/mol | ΔH [4]: -31 kcal/mol | Kd [5]: 55 nM | ΔG [6]: -10.6 kcal/mol | ΔH [6]: -10.1 kcal/mol | Kd [7]: 6.8 nM | ΔG [7]: -11.6 kcal/mol | ΔH [7]: -30.2 kcal/mol | Kd [8]: 1300 nM | ΔG [8]: -8.34 kcal/mol | ΔH [8]: -8.3 kcal/mol | Kd [9]: 135 nM | fold decrease in affinity against ALKTG-EGFL [10]: 30 fold | Kd [11]: 350 nM | koff [11]: 0.0005 s⁻¹ | kon [11]: 4000 M⁻¹ s⁻¹ | Kd [12]: 70 nM | ΔG [12]: -9.4 kcal/mol | ΔH [12]: -9.7 kcal/mol

The next lines start with the values.

Kd [13]: 280 nM | koff [13]: 0.00082 s⁻¹ | kon [13]: 2900 M⁻¹ s⁻¹ | Kd [14]: 3000 nM | kon [14]: 53000 M⁻¹ s⁻¹ | koff [15]: 0.16 s⁻¹
B3: ALKAL2^H100A (residues 78-152) (ligand, human, UniProt Q6UX46 78-152, looked up)
chain: PSPEQRVEIVPRDLRMKDKFLKALTGPLYFSPKCSKHFHRLYHNTRDCTIPAYYKRCARLLTRLAVSPVCMEDKQ
notes: range 78-152; Avi-tagged and biotinylated in BLI; also called ALKAL2 site 2 mutant H100A

Kd [16]: 3500 nM | Kd [17]: 2300 nM
B4: ALKAL2^R123E (residues 78-152) (ligand, human, UniProt Q6UX46 78-152, looked up)
chain: PSPEQRVEIVPRDLRMKDKFLKHLTGPLYFSPKCSKHFHRLYHNTEDCTIPAYYKRCARLLTRLAVSPVCMEDKQ
notes: range 78-152; also called ALKAL2 site 1 mutant R123E
